# ± gives the standard deviation of the averaged measurements.
# Experiment: total protein half-life in vivo (active degradation + dilution); higher = more stable protein
# [1] = E. coli NCM3722 delta-clpP delta-lon delta-hslV, growth: N-lim chemostat, doubling time 6 h
# [2] = E. coli NCM3722 delta-hslV, growth: N-lim chemostat, doubling time 6 h
# [3] = E. coli NCM3722 delta-smpB, growth: N-lim chemostat, doubling time 6 h
# [4] = wild type E. coli NCM3722, growth: C-lim chemostat, doubling time 3 h
# [5] = wild type E. coli NCM3722, growth: C-lim chemostat, doubling time 6 h
# [6] = wild type E. coli NCM3722, growth: C-lim chemostat, doubling time 12 h
# [7] = wild type E. coli NCM3722, growth: N-lim chemostat, doubling time 6 h
# [8] = wild type E. coli NCM3722, growth: N-lim chemostat, doubling time 12 h
# [9] = wild type E. coli NCM3722, growth: P-lim chemostat, doubling time 6 h
# [10] = wild type E. coli NCM3722, growth: P-lim chemostat, doubling time 12 h
# [11] = E. coli NCM3722 delta-clpP, growth: N-lim chemostat, doubling time 6 h
# [12] = E. coli NCM3722 delta-lon, growth: N-lim chemostat, doubling time 6 h
Sequence,total protein half-life in vivo [1],total protein half-life in vivo [2],total protein half-life in vivo [3],total protein half-life in vivo [4],total protein half-life in vivo [5],total protein half-life in vivo [6],total protein half-life in vivo [7],total protein half-life in vivo [8],total protein half-life in vivo [9],total protein half-life in vivo [10],total protein half-life in vivo [11],total protein half-life in vivo [12]
MTIYFINWVADYELKMIQYLKKKYKIKNITTPKKYNWINKKISKIGMDNAWLGRLFIKHYLNDIKKDDIIIINDSVVNKGINKQILKNINCHKVLLLRNTVGEDFILDNANYFDIIYDFEHRFIGNEKIKAIEQFFPIGMDEIRNYSLSDKNNSQPICFFLGRDKGRLQIINELAERLTTLGCKLDFNVVKDKTSSTTSKYLIEKQISYEENIRRTLNANIIVDITKENQSGWTLRILEALFFNKKLITNNINVFGSEIYSESRFFIIGHDDWDKLEYFINSSVKPMDYDSLYKFSPDKMMSTIVSDFIDK,7.07 ± 1.2 h,5.4 ± 0.26 h,4.651 ± 0.02 h,2.87 ± 0.037 h,4.87 ± 0.59 h,9.41 ± 2.8 h,5.54 ± 0.49 h,10.8 ± 2.5 h,4.59 ± 0.58 h,10.1 ± 1 h,,
MTKQVKIYHNPRCSKSRETLNLLKENGVEPEVVLYLETPADAATLRDLLKILGMNSARELMRQKEDLYKELNLADSSLSEEALIQAMVDNPKLMERPIVVANGKARIGRPPEQVLEIVG,,3.65 ± 0.025 h,,3.47 ± 0.39 h,5.12 ± 0.37 h,7.332 ± 0.073 h,2.58 ± 0.029 h,4.7 ± 1.2 h,3.87 ± 0.41 h,8.07 ± 0.2 h,5.8 h,4.45 ± 0.96 h
MTKTVSTSKKPRKQHSPEFRSEALKLAERIGVTAAARELSLYESQLYNWRSKQQNQQTSSERELEMSTEIARLKRQLAERDEELAILQKAATYFAKRLK [P0CF66],,,,,,3.53 h,,,,5.25 ± 0.29 h,,
MTLDLPRRFPWPTLLSVCIHGAVVAGLLYTSVHQVIELPAPAQPISVTMVTPADLEPPQAVQPPPEPVVEPEPEPEPIPEPPKEAPVVIEKPKPKPKPKPKPVKKVQEQPKRDVKPVESRPASPFENTAPARLTSSTATAATSKPVTSVASGPRALSRNQPQYPARAQALRIEGQVKVKFDVTPDGRVDNVQILSAKPANMFEREVKNAMRRWRYEPGKPGSGIVVNILFKINGTTEIQ,3.05 ± 0.064 h,2.27 ± 0.21 h,2.92 ± 1.7 h,1.93 ± 0.35 h,3.6 ± 0.45 h,5.81 ± 0.11 h,2.33 ± 0.17 h,3.29 ± 0.16 h,3.17 ± 0.13 h,6.09 ± 0.82 h,3.18 ± 0.081 h,1.79 ± 0.029 h
MTLLASLRDWLKAQQLDAVLLSSRQNKQPHLGISTGSGYVVISRESAHILVDSRYYVEVEARAQGYQLHLLDATNTLTTIVNQIIADEQLQTLGFEGQQVSWETAHRWQSELNAKLVSATPDVLRQIKTPEEVEKIRLACGIADRGAEHIRRFIQAGMSEREIAAELEWFMRQQGAEKASFDTIVASGWRGALPHGKASDKIVAAGEFVTLDFGALYQGYCSDMTRTLLVNGEGVSAESHLLFNVYQIVLQAQLAAISAIRPGVRCQQVDDAARRVITEAGYGDYFGHNTGHAIGIEVHEDPRFSPRDTTTLQPGMLLTVEPGIYLPGQGGVRIEDVVLVTPQGAEVLYAMPKTVLLTGEA,6.04 h,,,,,3.72 h,,,,,,
MTLPKIKQVRAWFTGGATAEKGAGGGDYHDQGANHWIDDHIATPMSKYRDYEQSRQSFGINVLGTLVVEVEAENGQTGFAVSTAGEMGCFIVEKHLNRFIEGKCVSDIKLIHDQMLSATLYYSGSGGLVMNTISCVDLALWDLFGKVVGLPVYKLLGGAVRDEIQFYATGARPDLAKEMGFIGGKMPTHWGPHDGDAGIRKDAAMVADMREKCGEDFWLMLDCWMSQDVNYATKLAHACAPYNLKWIEECLPPQQYESYRELKRNAPVGMMVTSGEHHGTLQSFRTLSETGIDIMQPDVGWCGGLTTLVEIAAIAKSRGQLVVPHGSSVYSHHAVITFTNTPFSEFLMTSPDCSTMRPQFDPILLNEPVPVNGRIHKSVLDKPGFGVELNRDCNLKRPYSH,,,,2.53 ± 0.29 h,3.97 ± 0.25 h,7.51 ± 1.1 h,> 8 h,,,9.69 h,,
MTLQQQIIKALGAKPQINAEEEIRRSVDFLKSYLQTYPFIKSLVLGISGGQDSTLAGKLCQMAINELRLETGNESLQFIAVRLPYGVQADEQDCQDAIAFIQPDRVLTVNIKGAVLASEQALREAGIELSDFVRGNEKARERMKAQYSIAGMTSGVVVGTDHAAEAITGFFTKYGDGGTDINPLYRLNKRQGKQLLAALACPEHLYKKAPTADLEDDRPSLPDEVALGVTYDNIDDYLEGKNVPQQVARTIENWYLKTEHKRRPPITVFDDFWKK,4.93 ± 0.19 h,4.91 ± 0.29 h,4.58 ± 0.013 h,3.37 ± 0.64 h,6.28 ± 0.098 h,11.06 ± 0.038 h,4.67 ± 0.63 h,7.98 ± 0.17 h,5.737 ± 0.042 h,11.6 ± 0.31 h,5.28 ± 1.6 h,5.15 ± 0.71 h
MTLTASSSSRAVTNSPVVVALDYHNRDDALAFVDKIDPRDCRLKVGKEMFTLFGPQFVRELQQRGFDIFLDLKFHDIPNTAAHAVAAAADLGVWMVNVHASGGARMMTAAREALVPFGKDAPLLIAVTVLTSMEASDLVDLGMTLSPADYAERLAALTQKCGLDGVVCSAQEAVRFKQVFGQEFKLVTPGIRPQGSEAGDQRRIMTPEQALSAGVDYMVIGRPVTQSVDPAQTLKAINASLQRSA,5.11 ± 0.11 h,4.479 ± 0.025 h,4.77 ± 0.33 h,2.89 ± 0.2 h,6.45 ± 1 h,9.6 ± 0.32 h,4.77 ± 0.15 h,8.44 ± 1.3 h,5.08 ± 0.49 h,10.2 ± 0.27 h,6.25 ± 2.3 h,5.08 ± 0.2 h
MTMNSFERRNKIIQLVNEQGTVLVQDLAGVFAASEATIRADLRFLEQKGVVTRFHGGAAKIMSGNSETETQEVGFKERFQLASAPKNRIAQAAVKMIHEGMTDPTHVIWTQA,5.66 ± 0.27 h,5.7 ± 0.13 h,6.1 ± 0.52 h,2.9 ± 0.17 h,5.62 ± 0.3 h,12.4 ± 2.1 h,5.69 ± 0.26 h,11.3 ± 1.8 h,5.95 ± 0.17 h,11.5 ± 0.23 h,5.64 ± 0.21 h,5.59 ± 0.61 h
MTMSLEVFEKLEAKVQQAIDTITLLQMEIEELKEKNNSLSQEVQNAQHQREELERENNHLKEQQNGWQERLQALLGRMEEV [P0AF36],7.42 ± 0.15 h,3.23 h,3.08 ± 0.33 h,2.8 ± 0.15 h,5.01 ± 0.5 h,8.02 ± 1.9 h,2.88 ± 0.047 h,5.13 ± 2.1 h,4.53 h,8.35 ± 0.092 h,5.62 ± 0.36 h,4.06 ± 0.25 h

# Source: the supplement of paper PMC11246515
